Where no end group is shown, it is not given here.

The assay addresses Kv1.3 voltage-gated potassium channel on T cells in human whole blood (human) (UniProt P22001). Put plainly: cell-based or functional assay.

Sequence of Kv1.3 voltage-gated potassium channel on T cells in human whole blood (human) (P22001 whole entry): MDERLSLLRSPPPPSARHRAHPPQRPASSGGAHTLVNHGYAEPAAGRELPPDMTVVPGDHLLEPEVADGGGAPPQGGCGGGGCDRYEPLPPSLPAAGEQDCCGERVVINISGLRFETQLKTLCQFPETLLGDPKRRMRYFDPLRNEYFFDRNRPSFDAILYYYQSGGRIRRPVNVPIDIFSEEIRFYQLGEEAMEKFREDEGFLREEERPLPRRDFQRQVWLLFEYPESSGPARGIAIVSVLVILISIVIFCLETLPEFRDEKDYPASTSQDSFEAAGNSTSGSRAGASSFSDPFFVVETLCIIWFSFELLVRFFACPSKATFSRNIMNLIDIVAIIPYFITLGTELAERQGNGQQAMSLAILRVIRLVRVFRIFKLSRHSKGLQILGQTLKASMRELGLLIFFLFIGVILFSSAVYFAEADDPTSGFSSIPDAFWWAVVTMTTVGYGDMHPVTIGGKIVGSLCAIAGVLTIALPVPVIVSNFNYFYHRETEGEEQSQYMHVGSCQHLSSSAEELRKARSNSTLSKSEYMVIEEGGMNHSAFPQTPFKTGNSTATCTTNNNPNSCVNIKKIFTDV

B1: Bivalent Fc-L10-ShK[1-35] homodimer (Fc fusion)
chain: GGGGSGGGGSRSCIDTIPKSRCTAFQCKHSMKYRLSFCRKTCGTC
modifications: not fully specified (N-terminus); ends and bridges not checked; also: homodimer via Fc
Molecule B1 gave a Potency Relative to ShK (WB, IL2) of 5.76 fold; a WB (IFNg) IC50 of 0.32 nM; a WB (IL-2) IC50 of 0.386 nM.

B2: Bivalent Fc-L10-ShK[2-35] homodimer (Fc fusion)
chain: GGGGSGGGGSSCIDTIPKSRCTAFQCKHSMKYRLSFCRKTCGTC
modifications: not fully specified (N-terminus); ends and bridges not checked; also: homodimer via Fc
As for B2, the Potency Relative to ShK (WB, IL2) is 8.73 fold; the WB (IFNg) IC50 came out at 2.29 nM; the WB (IL-2) IC50 stood at 0.585 nM.

The values above are taken from patent US20130189283A1.
